According to the Immune Epitope Database (IEDB):
Blank lines part the entries; values can stand above or below the sequence they belong to.

Assays:
[1] = molecular target: HLA-B*35:01; experiment: IEDB peptide-MHC binding, purified MHC/competitive/radioactivity; ≥ and ≤ were set here for values at or beyond the usual limits of such assays
[2] = molecular target: HLA-B*07:02; experiment: as above
[3] = molecular target: HLA-B*51:01; experiment: as above
[4] = molecular target: HLA-B*53:01; experiment: as above
[5] = molecular target: HLA-B*54:01; experiment: IEDB peptide-MHC binding, purified MHC/competitive/radioactivity; filed as Kd, often an IC50 or EC50 that approximates it; ≥ and ≤ were set here for values at or beyond the usual limits of such assays
[6] = molecular target: HLA-B*54:01; experiment: IEDB peptide-MHC binding, purified MHC/competitive/radioactivity; ≥ and ≤ were set here for values at or beyond the usual limits of such assays
[7] = molecular target: HLA-B*35:01; experiment: IEDB peptide-MHC binding, purified MHC/competitive/radioactivity; filed as Kd, often an IC50 or EC50 that approximates it; ≥ and ≤ were set here for values at or beyond the usual limits of such assays
[8] = molecular target: HLA-B*53:01; experiment: as above
[9] = molecular target: HLA-B*07:02; experiment: as above
[10] = molecular target: HLA-B*51:01; experiment: as above
[11] = source organism: Human immunodeficiency virus 1
[12] = source organism: Candida albicans
[13] = source organism: Human immunodeficiency virus type 1 (RF/HAT ISOLATE)
[14] = source organism: Hepatitis C virus (isolate Taiwan)
[15] = source organism: Human papillomavirus type 6b
[16] = source organism: Human T-cell leukemia virus type I
[17] = source organism: human papillomavirus 18
[18] = source organism: human papillomavirus 11
[19] = source organism: Human T-cell lymphotrophic virus type 1 (Caribbean isolate)

Sequence: FAVRPQVPL
IC50 [1, 11]: 148 nM | IC50 [3, 11]: 591 nM | Kd [5, 11]: 4250 nM | Kd [9, 11]: 1300 nM | Kd [8, 11]: 6170 nM

Sequence: FPISPIETV
IC50 [6, 13]: 9.8 nM | IC50 [3, 13]: 147 nM | IC50 [4, 13]: 251 nM | Kd [7, 13]: 1050 nM | Kd [9, 13]: 3480 nM

Sequence: FPVRPQVPC
IC50 [6, 11]: 65.8 nM | IC50 [2, 11]: 380 nM | Kd [7, 11]: 1300 nM | Kd [10, 11]: 1300 nM | Kd [8, 11]: 1300 nM

Sequence: FPVRPQVPI
IC50 [1, 11]: 118 nM | IC50 [6, 11]: 1.6 nM | IC50 [2, 11]: 22.4 nM | IC50 [3, 11]: 14.8 nM | IC50 [4, 11]: 30.2 nM

Sequence: FPVRPQVPL
IC50 [3, 11]: 679 nM | IC50 [4, 11]: 192 nM

Sequence: FPVRPQVPM
IC50 [1, 11]: 13 nM | IC50 [6, 11]: 79 nM | IC50 [2, 11]: 3.8 nM | IC50 [4, 11]: 32.5 nM | Kd [10, 11]: 1300 nM

Sequence: FPVRPQVPQ
IC50 [1, 11]: 394 nM | IC50 [6, 11]: 79 nM | IC50 [2, 11]: 380 nM | Kd [10, 11]: 1300 nM | Kd [8, 11]: 1300 nM

Sequence: FPVRPQVPT
IC50 [1, 11]: 26 nM | IC50 [6, 11]: 1.8 nM | IC50 [2, 11]: 380 nM | Kd [10, 11]: 1300 nM | Kd [8, 11]: 1300 nM

Sequence: FPYLVAYQA
IC50 [3, 14]: 57 nM | Kd [9, 14]: 18000 nM | Kd [8, 14]: 1710 nM

Sequence: IPEPEGPDA
Kd ([7]; source organism: Homo sapiens): ≥ 25000 nM | Kd ([5]; source organism: Homo sapiens): ≥ 5000 nM | Kd ([9]; source organism: Homo sapiens): ≥ 25000 nM | Kd ([10]; source organism: Homo sapiens): 5500 nM | Kd ([8]; source organism: Homo sapiens): ≥ 25000 nM

Sequence: IPFLTKFKL
IC50 [6, 15]: 833 nM | IC50 [3, 15]: 31 nM | IC50 [4, 15]: 581 nM | Kd [7, 15]: 9000 nM | Kd [9, 15]: 2390 nM

Sequence: LPSPACQLV
IC50 ([6]; source organism: Homo sapiens): 217 nM | IC50 ([3]; source organism: Homo sapiens): 8.2 nM | Kd ([7]; source organism: Homo sapiens): ≥ 25000 nM | Kd ([9]; source organism: Homo sapiens): 7860 nM | Kd ([8]; source organism: Homo sapiens): 7150 nM

Sequence: LPTTLFQPY
IC50 [6, 16]: 0.83 nM | IC50 [2, 16]: 423 nM | IC50 [3, 16]: 42 nM | Kd [7, 16]: 1560 nM | Kd [8, 16]: 11600 nM

Sequence: QPFILYAHI
IC50 [3, 17]: 26 nM | Kd [7, 17]: ≥ 25000 nM | Kd [5, 17]: 2940 nM | Kd [9, 17]: ≥ 25000 nM | Kd [8, 17]: 5470 nM

Sequence: QPKKVKRRL
Kd [7, 18]: ≥ 25000 nM | Kd [5, 18]: ≥ 25000 nM | Kd [9, 18]: 2900 nM | Kd [10, 18]: 3240 nM | Kd [8, 18]: ≥ 25000 nM

Sequence: SPISNVANA
IC50 [6, 18]: 56 nM | IC50 [2, 18]: 655 nM | Kd [7, 18]: ≥ 25000 nM | Kd [10, 18]: 5500 nM | Kd [8, 18]: ≥ 25000 nM

Sequence: SPLGERLEV
IC50 [2, 17]: 42 nM | Kd [7, 17]: ≥ 25000 nM | Kd [5, 17]: 9090 nM | Kd [10, 17]: ≥ 25000 nM | Kd [8, 17]: ≥ 25000 nM

Sequence: SPSCPLERF
IC50 ([1]; source organism: Homo sapiens): 379 nM | IC50 ([2]; source organism: Homo sapiens): 833 nM | Kd ([5]; source organism: Homo sapiens): ≥ 25000 nM | Kd ([10]; source organism: Homo sapiens): 1900 nM | Kd ([8]; source organism: Homo sapiens): 3440 nM

Sequence: TPAEVSIVV
IC50 ([6]; source organism: Homo sapiens): 333 nM | IC50 ([3]; source organism: Homo sapiens): 39 nM | Kd ([7]; source organism: Homo sapiens): 2120 nM | Kd ([9]; source organism: Homo sapiens): 1530 nM | Kd ([8]; source organism: Homo sapiens): 15500 nM

Sequence: WPLLPHVIF
IC50 [1, 19]: 180 nM | IC50 [6, 19]: 63 nM | IC50 [2, 19]: 367 nM | IC50 [3, 19]: 262 nM | Kd [8, 19]: 1010 nM

Sequence: YPCTVNFTI
IC50 [3, 14]: 12 nM | IC50 [4, 14]: 102 nM | Kd [9, 14]: 10800 nM

Continued, values first:

IC50 ([1]; source organism: Homo sapiens): 103 nM | IC50 ([2]; source organism: Homo sapiens): 68 nM | IC50 ([3]; source organism: Homo sapiens): 6.2 nM | IC50 ([4]; source organism: Homo sapiens): 198 nM | Kd ([5]; source organism: Homo sapiens): 1000 nM
Sequence: CPLERFAEL

IC50 ([6]; source organism: Homo sapiens): 476 nM | IC50 ([2]; source organism: Homo sapiens): 902 nM | IC50 ([3]; source organism: Homo sapiens): 28 nM | Kd ([7]; source organism: Homo sapiens): ≥ 25000 nM | Kd ([8]; source organism: Homo sapiens): ≥ 25000 nM
Sequence: EPGPVTAQV

IC50 [1, 12]: 15 nM | IC50 [6, 12]: 15 nM | IC50 [2, 12]: 14 nM | IC50 [3, 12]: 8.7 nM | IC50 [4, 12]: 6.7 nM
Sequence: FPASFFIKL

IC50 ([3]; source organism: Homo sapiens): 21 nM | IC50 ([4]; source organism: Homo sapiens): 16 nM | Kd ([7]; source organism: Homo sapiens): 4240 nM | Kd ([5]; source organism: Homo sapiens): 3850 nM | Kd ([9]; source organism: Homo sapiens): ≥ 25000 nM
Sequence: FPPEGVSIW

IC50 [6, 12]: 17 nM | IC50 [2, 12]: 51 nM | IC50 [3, 12]: 136 nM | Kd [7, 12]: ≥ 25000 nM | Kd [8, 12]: 3510 nM
Sequence: FPRFKFVWV

IC50 ([1]; source organism: Homo sapiens): 206 nM | IC50 ([4]; source organism: Homo sapiens): 404 nM | Kd ([5]; source organism: Homo sapiens): ≥ 25000 nM | Kd ([10]; source organism: Homo sapiens): 1960 nM
Sequence: HPEDTGQVF

IC50 ([2]; source organism: Homo sapiens): 60 nM | Kd ([7]; source organism: Homo sapiens): ≥ 25000 nM | Kd ([5]; source organism: Homo sapiens): ≥ 25000 nM | Kd ([10]; source organism: Homo sapiens): 5500 nM | Kd ([8]; source organism: Homo sapiens): ≥ 25000 nM
Sequence: IPLYRNGDF

IC50 ([1]; source organism: Homo sapiens): 400 nM | IC50 ([6]; source organism: Homo sapiens): 270 nM | IC50 ([3]; source organism: Homo sapiens): 14 nM | IC50 ([4]; source organism: Homo sapiens): 620 nM | Kd ([9]; source organism: Homo sapiens): 1120 nM
Sequence: LPFRNCPRF

IC50 ([6]; source organism: Homo sapiens): 20 nM | IC50 ([2]; source organism: Homo sapiens): 240 nM | IC50 ([3]; source organism: Homo sapiens): 4.3 nM
Sequence: LPQPPICTI

IC50 ([6]; source organism: Homo sapiens): 38 nM | IC50 ([2]; source organism: Homo sapiens): 68 nM | IC50 ([3]; source organism: Homo sapiens): 32 nM | IC50 ([4]; source organism: Homo sapiens): 465 nM | Kd ([7]; source organism: Homo sapiens): 2940 nM
Sequence: LPSIPVHPI

IC50 ([1]; source organism: Homo sapiens): 115 nM | IC50 ([3]; source organism: Homo sapiens): 809 nM | IC50 ([4]; source organism: Homo sapiens): 34 nM | Kd ([5]; source organism: Homo sapiens): ≥ 25000 nM
Sequence: LPTNASLSF

IC50 ([6]; source organism: Homo sapiens): 424 nM | IC50 ([2]; source organism: Homo sapiens): 600 nM | IC50 ([3]; source organism: Homo sapiens): 14 nM | IC50 ([4]; source organism: Homo sapiens): 20 nM | Kd ([7]; source organism: Homo sapiens): 1040 nM
Sequence: MPNQAQMRI

IC50 ([1]; source organism: Homo sapiens): 450 nM | IC50 ([6]; source organism: Homo sapiens): 294 nM | IC50 ([3]; source organism: Homo sapiens): 0.46 nM | IC50 ([4]; source organism: Homo sapiens): 6.6 nM
Sequence: MPREDAHFI

IC50 ([1]; source organism: Homo sapiens): 176 nM | IC50 ([2]; source organism: Homo sapiens): 10 nM | IC50 ([3]; source organism: Homo sapiens): 162 nM | IC50 ([4]; source organism: Homo sapiens): 23 nM | Kd ([5]; source organism: Homo sapiens): 12500 nM
Sequence: SPATLLLVL

IC50 ([6]; source organism: Homo sapiens): 23 nM | IC50 ([2]; source organism: Homo sapiens): 172 nM | IC50 ([3]; source organism: Homo sapiens): 367 nM | Kd ([7]; source organism: Homo sapiens): ≥ 25000 nM | Kd ([8]; source organism: Homo sapiens): ≥ 25000 nM
Sequence: VPLAHSSSA
